Data from FireProtDB (doi:10.1016/j.jmb.2009.05.011).
Where “and” joins values, the source holds several entries; their conditions need not be identical. Equal values may be shown once.

B1: Dihydrolipoyllysine-residue succinyltransferase component of 2-oxoglutarate dehydrogenase complex, P0AFG6 (parent)
chain: MSSVDILVPDLPESVADATVATWHKKPGDAVVRDEVLVEIETDKVVLEVPASADGILDAVLEDEGTTVTSRQILGRLREGNSAGKETSAKSEEKASTPAQRQQASLEEQNNDALSPAIRRLLAEHNLDASAIKGTGVGGRLTREDVEKHLAKAPAKESAPAAAAPAAQPALAARSEKRVPMTRLRKRVAERLLEAKNSTAMLTTFNEVNMKPIMDLRKQYGEAFEKRHGIRLGFMSFYVKAVVEALKRYPEVNASIDGDDVVYHNYFDVSMAVSTPRGLVTPVLRDVDTLGMADIEKKIKELAVKGRDGKLTVEDLTGGNFTITNGGVFGSLMSTPIINPPQSAILGMHAIKDRPMAVNGQVEILPMMYLALSYDHRLIDGRESVGFLVTIKELLEDPTRLLLDV

Variants of: B1
Conditions: Escherichia coli (strain K12), pH 7, structure 1W4H, whole UniProt chain shown
[1] = 10 °C, GdnHCl, CD, 3-[morpholino]propanesulfonic acid 50 mM, NaCl 200 mM
[2] = 10 °C, GdnHCl, Fluorescence, 3-[morpholino]propanesulfonic acid 50 mM, NaCl 200 mM
[3] = Thermal, CD, Potassium phosphate 50 mM, KCl 200 mM

| Variant | ddG of mutation (higher = less stable) [1] | denaturant m value [1] | denaturant midpoint (higher = more stable) [1] | unfolding free energy [1] | denaturant m value [2] | unfolding free energy [2] | Tm [3] | ddG of mutation (higher = less stable) [3] | unfolding enthalpy (van 't Hoff) [3] |
| --- | --- | --- | --- | --- | --- | --- | --- | --- | --- |
| MSSVDILVPDLPESVADATVATWHKKPGDAVVRDEVLVEIETDKVVLEVPASADGILDAVLEDEGTTVTSRQILGRLREGNSAGKETSAKSEEKASTPAQRQQASLEEQNNDAASPAIRRLLAEHNLDASAIKGTGVGGRLTREDVEKHLAKAPAKESAPAAAAPAAQPALAARSEKRVPMTRLRKRVAERLLEAKNSTAMLTTFNEVNMKPIMDLRKQYGEAFEKRHGIRLGFMSFYVKAVVEALKRYPEVNASIDGDDVVYHNYFDVSMAVSTPRGLVTPVLRDVDTLGMADIEKKIKELAVKGRDGKLTVEDLTGGNFTITNGGVFGSLMSTPIINPPQSAILGMHAIKDRPMAVNGQVEILPMMYLALSYDHRLIDGRESVGFLVTIKELLEDPTRLLLDV [L114A] | 0.9 kcal/mol | 0.71 kcal/mol/M | 2.6 M | 1.85 kcal/mol | 0.5 kcal/mol/M and 0.18 kcal/mol/M | 1.7 kcal/mol | 41.9 °C | 0.94 kcal/mol | 20 kcal/mol |
| MSSVDILVPDLPESVADATVATWHKKPGDAVVRDEVLVEIETDKVVLEVPASADGILDAVLEDEGTTVTSRQILGRLREGNSAGKETSAKSEEKASTPAQRQQASLEEQNNDALSPAIRRLLAEHNLDASAIKGTGVGGRLTREDVEKHAAKAPAKESAPAAAAPAAQPALAARSEKRVPMTRLRKRVAERLLEAKNSTAMLTTFNEVNMKPIMDLRKQYGEAFEKRHGIRLGFMSFYVKAVVEALKRYPEVNASIDGDDVVYHNYFDVSMAVSTPRGLVTPVLRDVDTLGMADIEKKIKELAVKGRDGKLTVEDLTGGNFTITNGGVFGSLMSTPIINPPQSAILGMHAIKDRPMAVNGQVEILPMMYLALSYDHRLIDGRESVGFLVTIKELLEDPTRLLLDV [L150A] | 0.6 kcal/mol and 0.74 kcal/mol | 0.71 kcal/mol/M and 0.69 kcal/mol/M | 3.02 M and 1.98 M | 2.14 kcal/mol and 1.37 kcal/mol | – | 2.13 kcal/mol and 1.46 kcal/mol | – | 0.57 kcal/mol and 1.18 kcal/mol | 23 kcal/mol and 18 kcal/mol |
| MSSVDILVPDLPESVADATVATWHKKPGDAVVRDEVLVEIETDKVVLEVPASADGILDAVLEDEGTTVTSRQILGRLREGNSAGKETSAKSEEKASTPAQRQQASLEEQNNDALSPAIRRLLAEHNLDASAIKGTGGGGRLTREDVEKHLAKAPAKESAPAAAAPAAQPALAARSEKRVPMTRLRKRVAERLLEAKNSTAMLTTFNEVNMKPIMDLRKQYGEAFEKRHGIRLGFMSFYVKAVVEALKRYPEVNASIDGDDVVYHNYFDVSMAVSTPRGLVTPVLRDVDTLGMADIEKKIKELAVKGRDGKLTVEDLTGGNFTITNGGVFGSLMSTPIINPPQSAILGMHAIKDRPMAVNGQVEILPMMYLALSYDHRLIDGRESVGFLVTIKELLEDPTRLLLDV [V137G] | 0.98 kcal/mol | 0.73 kcal/mol/M | 2.49 M | 1.82 kcal/mol | 0.47 kcal/mol/M and 0.24 kcal/mol/M | 2.03 kcal/mol | 43.1 °C | 0.84 kcal/mol | 18 kcal/mol |
| MSSVDILVPDLPESVADATVATWHKKPGDAVVRDEVLVEIETDKVVLEVPASADGILDAVLEDEGTTVTSRQILGRLREGNSAGKETSAKSEEKASTPAQRQQASLEEQNNDALSPAIRRLLAEHNADASAIKGTGVGGRLTREDVEKHLAKAPAKESAPAAAAPAAQPALAARSEKRVPMTRLRKRVAERLLEAKNSTAMLTTFNEVNMKPIMDLRKQYGEAFEKRHGIRLGFMSFYVKAVVEALKRYPEVNASIDGDDVVYHNYFDVSMAVSTPRGLVTPVLRDVDTLGMADIEKKIKELAVKGRDGKLTVEDLTGGNFTITNGGVFGSLMSTPIINPPQSAILGMHAIKDRPMAVNGQVEILPMMYLALSYDHRLIDGRESVGFLVTIKELLEDPTRLLLDV [L127A] | 1.37 kcal/mol | 0.63 kcal/mol/M | 1.95 M | 1.23 kcal/mol | 0.41 kcal/mol/M and 0.18 kcal/mol/M | 1.2 kcal/mol | 29.2 °C | 1.9 kcal/mol | 12 kcal/mol |
| MSSVDILVPDLPESVADATVATWHKKPGDAVVRDEVLVEIETDKVVLEVPASADGILDAVLEDEGTTVTSRQILGRLREGNSAGKETSAKSEEKASTPAQRQQASLEEQNNDALSPAIRRLLAEHNLDGSAIKGTGVGGRLTREDVEKHLAKAPAKESAPAAAAPAAQPALAARSEKRVPMTRLRKRVAERLLEAKNSTAMLTTFNEVNMKPIMDLRKQYGEAFEKRHGIRLGFMSFYVKAVVEALKRYPEVNASIDGDDVVYHNYFDVSMAVSTPRGLVTPVLRDVDTLGMADIEKKIKELAVKGRDGKLTVEDLTGGNFTITNGGVFGSLMSTPIINPPQSAILGMHAIKDRPMAVNGQVEILPMMYLALSYDHRLIDGRESVGFLVTIKELLEDPTRLLLDV [A129G] | 0.56 kcal/mol | 0.72 kcal/mol/M | 3.07 M | 2.21 kcal/mol | 0.5 kcal/mol/M and 0.2 kcal/mol/M | 2.22 kcal/mol | 46.5 °C | 0.58 kcal/mol | 22 kcal/mol |
